Measurements published in US20100291137A1 (GlaxoSmithKline, published 2010).

Target: the molecule itself
Assay: analytical ultracentrifugation and chemical cross-linking

B1: refolded NspA (recombinant mature NspA of Neisseria meningitidis strain H44/76, without the 19 amino acid signal peptide) (other)
chain: EGASGFYVQADAAHAKASSSLGSAKGFSPRISAGYRINDLRFAVDYTRYKNYKAPSTDFKLYSIGASAIYDFDTQSPVKPYLGARLSLNRASVDLGGSDSFSQTSIGLGVLTGVSYAVTPNVDLDAGYRYNYIGKVNTVKNVRSGELSAGVRVKF
binding result: no binding
